Patent US20250066476A1 (TENEOONE, published 2025)

T1: human B-cell maturation antigen (BCMA) (human, UniProt Q02223 1-54, limits assumed)
T1 construct: also called CD269; TNFRSF17
T1 sequence (looked up): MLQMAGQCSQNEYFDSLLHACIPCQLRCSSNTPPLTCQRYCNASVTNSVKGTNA


biological target: T2, human PSMA (Prostate Specific Membrane Antigen, Glutamate Carboxypeptidase II) (human, UniProt Q04609 1-750); assay: flow cytometry on LNCaP cells
T2 construct: whole, on cells; the cell line is named under assay; also called FOLH1
Method: Briefly, 50,000 target cells were stained with a dilution series of purified UniAbs™ for 30 minutes at 4° C. Following incubation, the cells were washed twice with flow cytometry buffer (1×PBS, 1% BSA, 0.1% NaN₃) and stained with goat F(ab′)₂ anti-human IgG conjugated to R-phycoerythrin (PE) (Southern Biotech, cat. #2042-09) to detect cell-bound antibodies. After a 20-minute incubation at 4° C., the cells were washed twice with flow cytometry buffer and the mean fluorescence intensity (MFI) was measured by flow cytometry. The MFI of cells stained with secondary antibody alone were used for determination of background signal and binding of each antibody was converted to fold over background. Binding to cynomolgus PSMA positive cells was determined using the same protocol with the following modifications: the target cells were from Freestyle 293-F cells (ThermoFisher R79007) transiently transfected to express the extracellular domain of cynomolgus PSMA. In some experiments EC50 values were calculated using GraphPad Prism 7.
Column 1 indicates the clone ID of the HCAb. Column 2 indicates binding to LNCaP cells measured as fold over the background MFI signal.

T2 sequence (Q04609 whole entry): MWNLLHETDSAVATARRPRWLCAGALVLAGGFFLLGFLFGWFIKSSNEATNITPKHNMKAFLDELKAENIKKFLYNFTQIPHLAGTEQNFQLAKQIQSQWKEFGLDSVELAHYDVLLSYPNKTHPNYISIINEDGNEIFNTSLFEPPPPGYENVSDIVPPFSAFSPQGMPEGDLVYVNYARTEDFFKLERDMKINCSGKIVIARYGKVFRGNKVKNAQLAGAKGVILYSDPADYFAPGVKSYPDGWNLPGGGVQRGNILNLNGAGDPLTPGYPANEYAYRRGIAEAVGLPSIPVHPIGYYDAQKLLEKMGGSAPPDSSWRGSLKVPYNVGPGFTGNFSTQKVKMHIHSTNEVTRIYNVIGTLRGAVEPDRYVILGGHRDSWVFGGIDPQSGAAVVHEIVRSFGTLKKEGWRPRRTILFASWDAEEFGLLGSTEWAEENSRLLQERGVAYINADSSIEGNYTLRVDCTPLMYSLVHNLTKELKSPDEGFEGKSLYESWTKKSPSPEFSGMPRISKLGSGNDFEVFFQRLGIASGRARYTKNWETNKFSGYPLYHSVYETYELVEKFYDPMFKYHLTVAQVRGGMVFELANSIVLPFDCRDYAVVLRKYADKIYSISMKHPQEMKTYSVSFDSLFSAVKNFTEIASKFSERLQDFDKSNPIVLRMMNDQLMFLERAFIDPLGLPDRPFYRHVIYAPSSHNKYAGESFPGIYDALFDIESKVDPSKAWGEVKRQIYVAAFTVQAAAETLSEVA

Binder	fold over the background MFI signal [fold over background MFI]
anti-PSMA heavy-chain antibody clone ID 345505 (antibody, V domains shown, heavy chain-only antibody (UniAb/HCAb)) VH: QVQLVESGGGVVQPGRSLRLSCAASGFTFISYGMHWVRQAPGKGLEGVAVIWYDGSNRYYADSVKGRFTISRDNSKNTLYLQMNSLRAEDTAVYYCAREPRIGYYYESSGYYSLDYRGQGTLVTVSS	59
anti-PSMA heavy-chain antibody clone ID 325932 (antibody, V domains shown, heavy chain-only antibody (UniAb/HCAb)) VH: QVQLVESGGGVVQPGRSLRLSCAASGFSFSSYGMHWVRQAPGKGLEGVAVIWYDGSNRYYADSVKGRFTISRDNSKNTLYLQMNSLRAEDTAVYYCAREPRIGYYYESSGYYSLDYRGQGTLVTVSS	64
anti-PSMA heavy-chain antibody clone ID 345509 (antibody, V domains shown, heavy chain-only antibody (UniAb/HCAb)) VH: QVQLVESGGGLVQPGGSLRLSCAASGFSFSSYGMHWVRQAPGKGLEGVAVIWYDGSNKYYADSVKGRFTISRDNSKNTMYLQMNSLRAEDTAVYYCAREPRIGYYYESSGYYSLDYRGQGTLVTVSS	37
anti-PSMA heavy-chain antibody clone ID 345508 (antibody, V domains shown, heavy chain-only antibody (UniAb/HCAb)) VH: QVQLVESGGGVVQPGRSLRLSCAASGFSFSSYGMHWVRQAPGKGPEWVAVIWYDGSNRYYADSVKGRFTISRDNSKNTLYLQMNSLRAEDTAVYYCAREPRIGYYYESSGYYSLDYRGQGTLVTVSS	55
anti-PSMA heavy-chain antibody clone ID 345510 (antibody, V domains shown, heavy chain-only antibody (UniAb/HCAb)) VH: QVQLVESGGGVVQPGRSLRLSCAASGFSFSSYGMHWVRQAPGKGLEWVAVIWYDGSNKYYADSVKGRFTISRDNSKNTMYLQMNSLRAEDTAVYYCAREPRIGYYYESSGYYSLDYRGQGTLVTVSS	13

biological target: T1, human B-cell maturation antigen (BCMA); assay: ELISA protein and cell-binding assays

Binder	binding result
anti-BCMA heavy chain antibody clone ID 308837 (antibody, V domains shown, heavy chain-only antibody (UniAb)) VH: EVQLLESGGGLVQPGGSLRLSCAASGFTVSSYGMSWVRQAPGKGPEWVSGIRGSDGSTYYADSVKGRFTISRDNATNTLYLQMNSLRAEDTAVYYCAKQGGNDGPFDYRGQGTLVTVSS	binds
anti-BCMA heavy chain antibody clone ID 308902 (antibody, V domains shown, heavy chain-only antibody (UniAb)) VH: EVQLLESGGGLVQPGGSLRLSCAASGFTVSSYGMSWVRQAPGKGPEWVSGIRGSDGSTYYADSVKGRFTISRDNSKNTLYLQMNSLRAEDTAVYYCAKQGENDGPFDHRGQGTLVTVSS	binds
anti-BCMA heavy chain antibody clone ID 308636 (antibody, V domains shown, heavy chain-only antibody (UniAb)) VH: EVQVLESGGGLVQPGGSLRLSCAASGFTVSSYGMSWVRQPPGKGMEWVSGIRGSDGSTFYADSVKGRFTISRDNATNTLYLQMNSLRAEDTAVYYCAKQGGNDGPFDYRGQGTLVTVSS	binds
anti-BCMA heavy chain antibody clone ID 308806 (antibody, V domains shown, heavy chain-only antibody (UniAb)) VH: EVQLLESGGGLVQPGGSLRLSCAASGFTISSYGMSWVRQAPGKGVEWVSGIRGSDGTTYYADSVKGRFTISRDSSRNTLYLQMNSLRAEDTAVYYCAKQGGNDGPFDHRGQGTLVTVSS	binds
anti-BCMA heavy chain antibody clone ID 308635 (antibody, V domains shown, heavy chain-only antibody (UniAb)) VH: EVQLLESGGGLVQAGGSLRLSCAASGFTVSSYGMSWVRQAPGKGPEWVSGIRGSDGSTYYADSVKGRFTISRDNSKNTLYLQMNSLRAEDTAVYHCAKQGENDGPFDYRGQGTLVTVSS	binds
anti-BCMA heavy chain antibody clone ID 308912 (antibody, V domains shown, heavy chain-only antibody (UniAb)) VH: EVQLLESGGGLVQPGGSLRLSCAASGFTVSSYGMSWVRQPPGKGMEWVSGIRGSDGSTYYADSVKGRFTISRDNAKNTLYLQMNSLRAEDTAVYYCAKQGGNDGPFDYRGQGTLVTVSS	binds
